Test results from PMC2741464.

Legend:
Ku70/Ku80 C493A = Ku70/Ku80 C493A (human, UniProt P12956;P13010 1-609;1-732, C493A); experiment: EMSA; reduced; near wild type; 50 mM Tris-HCl pH 7.8, 10 mM MgCl2, 50 mM NaCl (FP: plus 1 mM DTT, 0.5 ml; EMSA: 20 μl, 500 fmol DNA); oxidation 2 mM diamide 15 min on ice, re-reduction 5 mM DTT 15 min on ice; binding temperature not stated; conditions: protein: recombinant; tags: His6 on Ku70; copies: 1;1; label: 32P; blunt
Ku70/Ku80 C493S = Ku70/Ku80 C493S (human, UniProt P12956;P13010 1-609;1-732, C493S); experiment: EMSA; reduced; similar to wild type (data not shown); 50 mM Tris-HCl pH 7.8, 10 mM MgCl2, 50 mM NaCl (FP: plus 1 mM DTT, 0.5 ml; EMSA: 20 μl, 500 fmol DNA); oxidation 2 mM diamide 15 min on ice, re-reduction 5 mM DTT 15 min on ice; binding temperature not stated; conditions: protein: recombinant; tags: His6 on Ku70; copies: 1;1; label: 32P; blunt
Sequence of Ku70/Ku80 C493S (P12956 whole entry, chain 1 of 2): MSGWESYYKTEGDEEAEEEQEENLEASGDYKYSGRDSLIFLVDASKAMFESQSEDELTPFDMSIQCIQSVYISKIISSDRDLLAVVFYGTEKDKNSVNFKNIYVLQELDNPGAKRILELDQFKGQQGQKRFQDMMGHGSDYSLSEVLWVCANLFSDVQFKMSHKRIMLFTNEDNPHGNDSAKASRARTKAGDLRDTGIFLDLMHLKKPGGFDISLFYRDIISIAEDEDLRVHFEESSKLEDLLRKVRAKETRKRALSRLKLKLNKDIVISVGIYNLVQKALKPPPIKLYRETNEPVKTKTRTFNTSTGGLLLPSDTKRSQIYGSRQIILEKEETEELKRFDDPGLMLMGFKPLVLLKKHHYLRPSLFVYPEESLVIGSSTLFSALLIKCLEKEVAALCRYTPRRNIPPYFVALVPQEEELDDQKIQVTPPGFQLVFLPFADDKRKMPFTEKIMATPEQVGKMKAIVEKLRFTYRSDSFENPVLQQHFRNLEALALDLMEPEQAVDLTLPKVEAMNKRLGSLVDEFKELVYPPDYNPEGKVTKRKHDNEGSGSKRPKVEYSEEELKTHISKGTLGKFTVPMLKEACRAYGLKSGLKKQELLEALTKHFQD
Sequence of Ku70/Ku80 C493S (P13010 whole entry C493S, chain 2 of 2): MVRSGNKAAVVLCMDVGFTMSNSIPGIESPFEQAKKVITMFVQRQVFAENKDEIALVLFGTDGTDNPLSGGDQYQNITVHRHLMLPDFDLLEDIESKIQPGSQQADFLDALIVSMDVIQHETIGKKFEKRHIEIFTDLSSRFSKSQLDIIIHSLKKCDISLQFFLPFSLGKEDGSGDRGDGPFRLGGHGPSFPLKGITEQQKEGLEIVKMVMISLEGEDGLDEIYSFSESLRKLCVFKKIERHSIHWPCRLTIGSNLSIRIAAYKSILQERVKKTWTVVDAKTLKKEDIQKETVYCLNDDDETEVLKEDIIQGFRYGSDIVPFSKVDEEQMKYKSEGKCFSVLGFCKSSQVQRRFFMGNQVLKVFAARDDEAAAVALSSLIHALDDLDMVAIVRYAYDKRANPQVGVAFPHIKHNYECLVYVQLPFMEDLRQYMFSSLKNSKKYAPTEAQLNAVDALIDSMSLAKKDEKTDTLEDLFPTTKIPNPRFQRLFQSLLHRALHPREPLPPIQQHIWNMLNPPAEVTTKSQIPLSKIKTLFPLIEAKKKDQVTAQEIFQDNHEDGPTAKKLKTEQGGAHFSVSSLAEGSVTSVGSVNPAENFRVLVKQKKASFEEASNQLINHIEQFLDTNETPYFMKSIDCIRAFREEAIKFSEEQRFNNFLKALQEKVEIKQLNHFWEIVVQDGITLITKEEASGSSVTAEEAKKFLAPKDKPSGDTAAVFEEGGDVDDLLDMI

[1] = biological target: T1, Ku70/Ku80 heterodimer, wild type (human, UniProt P12956;P13010 1-609;1-732); experiment: EMSA; reduced (control), 10 mM Mg2+, titration was 0-150 nM so probably nM; 50 mM Tris-HCl pH 7.8, 10 mM MgCl2, 50 mM NaCl (FP: plus 1 mM DTT, 0.5 ml; EMSA: 20 μl, 500 fmol DNA); oxidation 2 mM diamide 15 min on ice, re-reduction 5 mM DTT 15 min on ice; binding temperature not stated; conditions: protein: recombinant; tags: His6 on Ku70; copies: 1;1; label: 32P; blunt
T1 sequence (P12956 whole entry, chain 1 of 2): as the sequence (P12956 whole entry, chain 1 of 2) above
T1 sequence (P13010 whole entry, chain 2 of 2): as the sequence (P13010 whole entry C493S, chain 2 of 2) above, with S493C counted along it

Ku70/80ΔC [2] = biological target: T2, Ku70/80ΔC (human, UniProt P12956;P13010 1-609;1-548); experiment: EMSA; reduced (control), 10 mM Mg2+, probably nM; 50 mM Tris-HCl pH 7.8, 10 mM MgCl2, 50 mM NaCl (FP: plus 1 mM DTT, 0.5 ml; EMSA: 20 μl, 500 fmol DNA); oxidation 2 mM diamide 15 min on ice, re-reduction 5 mM DTT 15 min on ice; binding temperature not stated; conditions: protein: recombinant; tags: His6 on Ku70; N-terminal His6 (pRSET B) also on Ku80ΔC per Methods; copies: 1;1; label: 32P; blunt
T2 sequence (P12956 whole entry, stated change not applied, chain 1 of 2): as the sequence (P12956 whole entry, chain 1 of 2) above
T2 sequence (P13010 1-548, stated change not applied, chain 2 of 2): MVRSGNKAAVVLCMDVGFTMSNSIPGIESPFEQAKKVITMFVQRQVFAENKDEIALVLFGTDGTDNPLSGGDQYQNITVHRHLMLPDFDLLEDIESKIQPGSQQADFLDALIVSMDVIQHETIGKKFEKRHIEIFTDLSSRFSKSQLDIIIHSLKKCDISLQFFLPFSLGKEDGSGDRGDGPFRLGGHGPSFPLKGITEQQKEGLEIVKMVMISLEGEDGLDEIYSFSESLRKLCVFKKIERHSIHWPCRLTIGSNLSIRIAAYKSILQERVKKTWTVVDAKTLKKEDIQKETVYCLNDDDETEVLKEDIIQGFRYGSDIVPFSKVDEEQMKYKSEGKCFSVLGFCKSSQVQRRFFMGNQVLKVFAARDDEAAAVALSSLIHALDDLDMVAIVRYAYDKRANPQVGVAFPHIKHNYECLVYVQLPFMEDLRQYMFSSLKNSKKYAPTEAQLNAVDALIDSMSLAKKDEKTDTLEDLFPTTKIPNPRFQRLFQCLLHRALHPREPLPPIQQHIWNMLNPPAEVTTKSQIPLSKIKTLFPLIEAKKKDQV

[3] = biological target: T1, Ku70/Ku80 heterodimer, wild type; experiment: fluorescence polarization; re-reduced: 2 mM diamide then 5 mM DTT, probably nM; 50 mM Tris-HCl pH 7.8, 10 mM MgCl2, 50 mM NaCl (FP: plus 1 mM DTT, 0.5 ml; EMSA: 20 μl, 500 fmol DNA); oxidation 2 mM diamide 15 min on ice, re-reduction 5 mM DTT 15 min on ice; binding temperature not stated; conditions: protein: recombinant; tags: His6 on Ku70; copies: 1;1; blunt
[4] = biological target: T1, Ku70/Ku80 heterodimer, wild type; experiment: fluorescence polarization; reduced (control), 1 mM DTT, 10 mM Mg2+, probably nM; 50 mM Tris-HCl pH 7.8, 10 mM MgCl2, 50 mM NaCl (FP: plus 1 mM DTT, 0.5 ml; EMSA: 20 μl, 500 fmol DNA); oxidation 2 mM diamide 15 min on ice, re-reduction 5 mM DTT 15 min on ice; binding temperature not stated; conditions: protein: recombinant; tags: His6 on Ku70; copies: 1;1; blunt
Ku70/80ΔC [5] = biological target: T2, Ku70/80ΔC; experiment: as above; conditions: protein: recombinant; tags: His6 on Ku70; N-terminal His6 (pRSET B) also on Ku80ΔC per Methods; copies: 1;1; blunt

Sequence of Ku70/Ku80 C493A (P12956 whole entry, chain 1 of 2): as the sequence (P12956 whole entry, chain 1 of 2) above
Sequence of Ku70/Ku80 C493A (P13010 whole entry C493A, chain 2 of 2): as the sequence (P13010 whole entry C493S, chain 2 of 2) above, with S493A counted along it

| Binder | binding result (Ku70/Ku80 C493A) | binding result (Ku70/Ku80 C493S) | Kd [1] [nM] | Kd (Ku70/80ΔC [2]) [nM] | Kd [3] [nM] | Kd [4] [nM] | Kd (Ku70/80ΔC [5]) [nM] |
| --- | --- | --- | --- | --- | --- | --- | --- |
| 30-bp duplex 30A/30C (EMSA) (dsDNA) DNA 1: CCCCTATCCTTTCCGCGTCCTTACTTCCCC DNA 2: GGGGAAGTAAGGACGCGGAAAGGATAGGGG | binds | binds | 29.7 ± 2.5 | 51 ± 7.7 |  |  |  |
| 30-bp duplex 30A/30C, fluorescein (polarization) (dsDNA) DNA 1: CCCCTATCCTTTCCGCGTCCTTACTTCCCC DNA 2: GGGGAAGTAAGGACGCGGAAAGGATAGGGG |  |  |  |  | 31.4 ± 3 | 25.8 ± 2.3 | 25.7 ± 1.5 |
